# d = 2'-deoxy (DNA); r = 2'-OH (RNA)
# B1: human asporin D13: human asporin with 13 aspartic acid repeats, expressed from pcDNA3.1-ASP13 (SEQ ID NO:4) (protein, UniProt Q9BXN1 33-380, looked up)
# Asporin: DMEDTDDDDDDDDDDDDDDEDNSLFPTREPRSHFFPFDLFPMCPFGCQCYSRVVHCSDLGLTSVPTNIPFDTRMLDLQNNKIKEIKENDFKGLTSLYGLILNNNKLTKIHPKAFLTTKKLRRLYLSHNQLSEIPLNLPKSLAELRIHENKVKKIQKDTFKGMNALHVLEMSANPLDNNGIEPGAFEGVTVFHIRIAEAKLTSVPKGLPPTLLELHLDYNKISTVELEDFKRYKELQRLGLGNNKITDIENGSLANIPRVREIHLENNKLKKIPSGLPELKYLQIIFLHSNSIARVGVNDFCPTVPKMKKSLYSAISLFNNPVKYWEMQPATFRCVLSRMSVQLGNFGM
# Tests used:
# NHAC [1] = assay: Effects of SB431542 on gene expression induction by TGF-β1 in NHAC; assay type: cell-based, human; conditions: SB431542 10 μM added 30 minutes before TGF-β1 10 ng/ml, 12 hours
# Procedure: A time course of the expression of the asporin gene by TGF-β1 in NHAC was examined as described below. Cells were inoculated to a 12-well plate at 1×10^5 cells/well, and cultured in a DMEM/F12 containing 10% FBS until they became confluent. The medium was exchanged with a DMEM/F12 containing 0.2% FBS, and the cells were cultured for 24 hours, after which TGF-β1 (10 ng/ml) was added, total RNA was extracted over time, and the expression levels of the asporin and GAPDH genes were examined. As a result, the expression level of the asporin gene maximized when the cells were cultured in the presence of TGF-β1 (10 ng/ml) for 12 hours, and thereafter the expression level decreased over time (FIG. 46).
# In the experimental system for asporin gene expression induction by TGF-β1 used in the method described in Example 54, the effects of SB431542 (Sigma) (10 μM), an inhibitor of TGF-β1 type 1 receptor phosphorylation, on the induction of the expression of the asporin, type II collagen, aggrecan, and TGF-β1 genes (12 hours), when added 30 minutes before addition of TGF-β1 (10 ng/ml), were examined.
# NHAC [2] = assay: Asporin-specific siRNA transfection in NHAC, gene expression; assay type: cell-based, human; conditions: 24 hours, medium with 10 ng/ml TGF-β1
# Procedure: Asporin-specific siRNA (Si9: […]; SEQ ID NO:35) was designed using an siRNA design support system in Takara Shuzo's website (http://www.takara-bio.co.jp/rnai/intro/htm). […] Cells were inoculated to a 12-well plate at 5×10^5 cells/well, and cultured in a DMEM/F12 containing 10% FBS, ITS, 10 ng/ml TGF-β1 and penicillin/streptomycin for 24 hours, and siRNA transfection was performed using TransIT-TKO (Takara Shuzo). Total RNA was extracted from the cells after 24 hours of cultivation, and examined for the expression of the type II collagen, aggrecan and TGF-β1 genes. […] Therefore, endogenous asporin was thought to negatively regulate the expression of cartilage substrate and the expression of TGF-β1 in NHAC.
# [3] = tested on: ATDC5 cell lines that stably express human asporin; assay: Cartilage differentiation culture of ATDC5 lines stably expressing human asporin; assay type: cell-based, mouse; conditions: stably expressing lines, 5, 9, 15 or 21 days; mock peaks on Day 9
# Procedure: The ATDC5 cell lines that stably express human asporin prepared in Example 17 were inoculated to a 12-well plate at 0.3×10^5 cells/well, and cultured in a medium 1-1 for 5, 9, 15 or 21 days, after which total RNA extraction, purification, cDNA synthesis, and real-time PCR were performed in the same manner as Example 18.
# [4] = tested on: ATDC5 cell lines that stably express human asporin; assay: TGF-βs-stimulated aggrecan and type II collagen gene expression in ATDC5 lines stably expressing human asporin; assay type: cell-based, mouse; conditions: stably expressing lines vs mock, TGF-βs 10 ng/ml, 24 hours
# Procedure: Plasmid DNAs for allowing ATDC5 cells, a mouse cartilage stem cell line, to stably express human asporin were prepared as described below. First, by the method described below, full-length cDNAs of human asporin D13 and D14 were acquired. Using KOD-plus (Toyobo), according to the method described in the attached protocol, a reaction mixture was prepared. Per 25 μl of the reaction mixture, […] each of a sense strand primer comprising the initiation codon and a restriction enzyme XhoI site, and an antisense strand primer comprising the stop codon of aspotin and a restriction enzyme BamHI site, were used as the primers, and 1 μl (10 ng as total RNA) of a cDNA solution prepared from total RNA extracted from knee articular cartilage from OA patients carrying the D13 allele and the D14 allele of aspartic acid repeat polymorphisms in asporin heterologously was used as the template. […]
# The TGF-βs-stimulated expression of the aggrecan and type II collagen genes in ATDC5 cell lines that stably express human asporin was quantified by the method described below. […] For real-time PCR, reactions were performed using QuantiTect SYBR Green PCR Kit (QIAGEN), and detection and quantitation were performed using ABI PRISM 7700. […]
# [5] = tested on: ATDC5 cell lines that transiently express human asporin; assay: TGF-β1-stimulated aggrecan and type II collagen gene expression in ATDC5 transiently expressing human asporin; assay type: cell-based, mouse; conditions: transient expression vs mock, TGF-β1 10 ng/ml, 18 hours
# Procedure: ATDC5 cells were inoculated to a 12-well plate at 0.5×10^5 cells/well, and cultured in a medium 1-2 (DMEM/F12 medium containing 5% FBS, ITS (Sigma), penicillin (100 U/ml) and streptomycin (100 μg/ml)). 24 hours later, pcDNA3.1-ASP13 or pcDNA3.1-ASP14 were introduced using FuGENE-6 (Roche), and the cells were cultured for 24 hours. Next, the medium was exchanged with a medium 1-2 containing 0.2% FBS, and the cells were cultured for 12 hours, after which TGF-β1 (10 ng/ml) was added, and the cells were further cultured for 18 hours, after which total RNA extraction, purification, cDNA synthesis, and real-time PCR were performed in the same manner as Example 18. As a result, the elevation of the TGF-β1-stimulated expression levels of the aggrecan and type II collagen genes was suppressed in the ATDC5 cells allowed to transiently express human asporin D13 or D14 compared to mock (FIG. 14).
# First, the expression level of the aggrecan gene elevated by TGF-β1 stimulation in mock is written as (AM), and the expression level of the type II collagen gene at the same time is written as (CM). Next, the TGF-β1-stimulated aggrecan gene expression level suppressed by the forced expression of asporin D13 is written as (A13), and the type II collagen gene expression level at the same time is written as (C13). […] Thus, the suppression rate of the TGF-β1-stimulated aggrecan gene expression in the asporin D13 expressing line can be expressed as (A13)/(AM), and the suppression rate of the type II collagen gene expression as (C13)/(CM). Likewise, the suppression rate of the TGF-β1-stimulated aggrecan gene expression in the asporin D14 expressing line can be expressed as (A14)/(AM), and the suppression rate of the type II collagen gene expression as (C14)/(CM). Furthermore, by making a correction by dividing these values by the human asporin mRNA content obtained with TGF-β1 stimulation, the suppression rate of the aggrecan and type II collagen gene expression per human asporin mRNA content were calculated. […]
# [6] = tested on: ATDC5 cell lines that stably express human asporin; assay: Alcian Blue staining of extracellular proteoglycan in ATDC5 lines stably expressing human asporin; assay type: cell-based, mouse; conditions: Day 21 of cultivation, absorbance at 630 nm
# Procedure: The ATDC5 cell lines that stably express human asporin prepared in Example 17 were cultured by the method described in Example 20; using the cells on Day 21 after the start of cultivation, Alcian Blue staining was performed as described below. First, the medium was removed by suction, and the cell surface was washed with cold PBS three times, after which methanol fixation was performed at 4° C. for 2 minutes. The methanol was removed by suction, the cells were once rinsed with distilled water, and then stained using 0.1% Alcian Blue 8GX (Sigma)/3% acetic acid solution at 4° C. for 2 days. The staining solution was removed, the cells were washed with distilled water three times, and then examined under microscope and photographed. Thereafter, the cells were treated with aqueous solution of 6 M guanidine hydrochloride to extract the stained proteoglycan, after which the absorbance at 630 nm was measured.
molecule,measurement,setting,value
NC(=O)c1ccc(-c2nc(-c3ccc4c(c3)OCO4)c(-c3ccccn3)[nH]2)cc1 [SB431542],"induction by TGF-β1 of the expression of the asporin, type II collagen, aggrecan, and TGF-β1 genes",NHAC [1],inhibited the induction by TGF-β1 of the expression of these genes
"UCCCUUCAGGAUUACCAGATT (siRNA; sugars from the 5' end r19 d2, backbone not given here) [asporin-specific siRNA]","expression of the type II collagen, aggrecan and TGF-β1 genes",NHAC [2],significantly increased
B1,expression of the aggrecan and type II collagen genes during cartilage differentiation culture,[3],did not rise
same,elevation of the TGF-β1-stimulated expression levels of the aggrecan and type II collagen genes,[4],suppressed compared to mock
same,elevation of the TGF-β1-stimulated expression levels of the aggrecan and type II collagen genes,[5],suppressed
same,intensity of staining with Alcian Blue (extracellular proteoglycan),[6],mock>D13>D14

# Source: patent US20090075921A1, “Bone/joint disease sensitivity gene and use thereof” (Riken, priority 2004, published 2009)
